Test results taken from the nanobody polyreactivity screen of Harvey et al. (2022).

assay: yeast display, Sf9 membrane polyspecificity reagent, FACS + sequencing; frameworks hold sequencing errors
Procedure, shortened: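 In a synthetic yeast display library (Saccharomyces cerevisiae BJ5465), nanobody expression was induced with galactose for 36–48 hours. FACS gates were set low and high (top ~1%) using anti-HA fluorescence for expression and streptavidin fluorescence for binding of the Sf9 membrane reagent. Each polyreactivity label is drawn from the gate of origin.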

| Sequence | polyreactivity (PSR sort gate) |
| --- | --- |
| QVQLVESGGGLVQAGGSLRLSCAASGSIFYENVMGWYRQAPGKERELVAGISRSGGRTYYADSVKGRFTISRDNAKNTVYLQMNSLKPEDTAVYYCNAARVYLSEWGQGTQVTVSS | high polyreactivity |
| QVQLVESGGGLVQAGGSLRLSCAASGSIFYFNAMGWYRQAPGKDRELVAAITYNGGSTRYADSVKGRFTISRDNAKNTVYLQMNSLKPEDTAVYYCAARAKYGPEDGYWGQGTQVTVSS | high polyreactivity |
| QVQLVESGGGLVQAGGSLRLSCAASGSIFYFNAMGWYRQAPGKERELVAAINWRGDRTYYADSVKRRFTISRDNAKNTVYLQMNSLKPEDTAVYYCNAVRVHAYSTGEYGYWGQGTQVTVSS | high polyreactivity |
| QVQLVESGGGLVQAGGSLRLSCAASGSIFYFNAMGWYRQAPGKERELVAGISARGGSTYYADSVKGRFTISRDNAKNTVYLQMNSLKPEDTAVYYCAAYGTTRSRKRGFAWWGYDYWGQGTQVTVSS | low polyreactivity |
| QVQLVESGGGLVQAGGSLRLSCAASGSIFYFNAMGWYRQAPGKERELVARISGSSGRTYFADSVKGRFTISRDNAKNTVYLQMNSLKPEDTAVYYCAARYYTSATMDYWGQGTQVTVSS | high polyreactivity |
| QVQLVESGGGLVQAGGSLRLSCAASGSIFYFNAMGWYRRAPGKERELVAGISARGGSTYYADSVKGRFTISRDHAKNTVYIQMNSLKPEDTAGYYCAAYGTTRSRKRAFAWWGYDYWGQGTQVTVSS | low polyreactivity |
| QVQLVESGGGLVQAGGSLRLSCAASGSIFYFYAMGWYRQAPGKERELVAASRFTGGTTYYADSVKGRFTISRDNAKNTVYLQMNSLKPEDTAVYYCAKQTSYWSRGYDYWGQGTQVTVSS | low polyreactivity |
| QVQLVESGGGLVQAGGSLRLSCAASGSIFYFYAMGWYRQAPGKERELVATITRGGSTYYADSVKGRFTISRDNAKNTVYLQMNSLKPEDTAVYYCAADGWYWTYIVEYWGQGTQVTVSS | high polyreactivity |
| QVQLVESGGGLVQAGGSLRLSCAASGSIFYFYAMGWYRQAPGKERELVATITRRTGRTYYADSVKGRFTISRDNAKNTVYLQMNSLKPEDTAVYYCAARPKGPYGVWYNYWGQGTQVTVSS | high polyreactivity |
| QVQLVESGGGLVQAGGSLRLSCAASGSIFYFYTMGWYRQAPGKEREFVAAINGIGGSTYYADSVKGRFTISRDNAKNTVYLQMNSLKPEDTAVYYCAADAPWFKRNARKYNFWGQGTQVTVSS | low polyreactivity |
| QVQLVESGGGLVQAGGSLRLSCAASGSIFYGNAMGRYRQAPGKERELVAGITGYGSPTYYADSVKGRFTISRDNAKNTVYLQMNSLKPEVTAVYYCARLTRTSRGMYDYWGQGTQVTVSS | high polyreactivity |
| QVQLVESGGGLVQAGGSLRLSCAASGSIFYGNAMGWDRQAPGNARELVAAISWNGGSTYYADSVKGRFTISRDNAKNTVYLQMNSLKPEDTAVYYSNADYYYEVDSWGQGTQVTVSS | low polyreactivity |
| QVQLVESGGGLVQAGGSLRLSCAASGSIFYGNAMGWYRQAPGKERELVAAITRRGGRTYYADSVKGRFTISRDNAKNTVYLQMNSLKPEDTAVYYCNKDVGVAVEMGYWGQGTQVTVSS | high polyreactivity |
| QVQLVESGGGLVQAGGSLRLSCAASGSIFYGNGMGWYRQAPGKERELVAVISVSGGRTFYADSVKGRFTISRDNAKNTVYLQMNSLKPEDTAVYYCATRTYRVDPEFGYWGQGTQVTVSS | high polyreactivity |
| QVQLVESGGGLVQAGGSLRLSCAASGSIFYGNTMGWYRQAPGKERELVAAITWSGDSTYYADSVKGRFTISRDNAKNTVYLQMNSLKPEDTAVYYCNADQTGVYYAGEGNYWGQGTQVTVSS | low polyreactivity |
| QVQLVESGGGLVQAGGSLRLSCAASGSIFYGYAMGWFRQAPGKEREFVADITSSGVSTYYADSVKGRFTISRDNAKNSVYLQINSLKPEDTAVYYCAKLRRYYSSVYHKFVFYTDDYWGQGSQVTVSS | high polyreactivity |
| QVQLVESGGGLVQAGGSLRLSCAASGSIFYGYAMGWYRQAAGKERELVARITGSGGDTSYADSVKGRFTISRDNSKNTVYLQMNSLKPEDTALYYCNTDLYITYTLYTGSEYDYWGQGTQVTVSS | low polyreactivity |
| QVQLVESGGGLVQAGGSLRLSCAASGSIFYGYAMGWYRQAPGKERELVAAIRYSDGSTYYADSVKGRFTISRDNAKNTVYLQMNSLKPEDTAVYYCAKKRRNYIGYYYWGQGTQVTVSS | high polyreactivity |
| QVQLVESGGGLVQAGGSLRLSCAASGSIFYGYAMGWYRQAPGKERELVAAITWIDGSTYYADSVKGRFTISRDNAKNPVFLQLTSLKPEDTAVYYCAAGGYFYSFYYWGQGTQVTVSS | low polyreactivity |
| QVQLVESGGGLVQAGGSLRLSCAASGSIFYGYAMGWYRQATGKERELVAAITSGGSTYYADSVKGRFTISRDNAKNTVYLQMNSLKPEDTAVYYCAADYPSRYWRIDYEYWGQGTQVTVSS | high polyreactivity |
| QVQLVESGGGLVQAGGSLRLSCAASGSIFYGYTMGWSRQAPGKEREFVAAITGSGGSTYYADSVKGRFTISRDTPKNTVYVQMNTLKPEDTAVYYCAARRYVNRRYDYWGQGTQVTVSS | high polyreactivity |
| QVQLVESGGGLVQAGGSLRLSCAASGSIFYGYTMGWYRQEPRKERELVAAIRKSGGSTNYADSVKGRFTISRDTAKNTVYLQMNSLKPEDTALYNCAADYYRRRGYYWGQGTQVTVSS | high polyreactivity |

| Sequence | polyreactivity (PSR sort gate) |
| --- | --- |
| QVQLVESGGGLVQAGGSLRLSCAASGSIFYHNAMGWYRQAPGKERELVAAISYRTGRTYYADSVKGRFTISRDNAKNTVYLQMNSLKPEDTAVYYCAAPYSWGQGTQVTVSS | high polyreactivity |
| QVQLVESGGGLVQAGGSLRLSCAASGSIFYHNTMGWYIQAPGKERELITYYADSVKGRFTISRDNAKNTVYLQMNSLKPEDTAVYYCAASPVSRTGPGDYDFWGQGTQVTVSS | low polyreactivity |
| QVQLVESGGGLVQAGGSLRLSCAASGSIFYHYAMGWSRQAPGKERELVAAITRSGGSTYYADSVKGRFTISRDNAKHTVYLQMNSLKPEDTAVYYCAKDPDSYNFLTSNWYDYWGQGTQVTVSS | low polyreactivity |
| QVQLVESGGGLVQAGGSLRLSCAASGSIFYHYAMGWYRQAPGKERELVAAISQSGGGTYYADSVKGRFTISRDNAKNTVYLQMNSLKPEDTAVYYCNRLSKQKQEFDYWGQGTQVTVSS | high polyreactivity |
| QVQLVESGGGLVQAGGSLRLSCAASGSIFYINAMGWYRQAPGKERELVAAINRGGSTNYADSVKGRFTISRDNAKNTVYLQMNSLKPEDTAVYYCAAYIYKTYRYYYWGQGTQVTVSS | high polyreactivity |
| QVQLVESGGGLVQAGGSLRLSCAASGSIFYIYALGWYRQAPGKERELVAAISRSGGRTYYADSVKGRFTISRDNAKNTVYLQMNSLKPEDTGVYYCAARRYTAYDYWGQGTQVTVSS | high polyreactivity |
| QVQLVESGGGLVQAGGSLRLSCAASGSIFYIYAMGWYRQAPGKERELVARISTGGSTHYADSVKGRFTISRDNAKNTVYLQMNSLKPEDTAVYYCDAPYWLWDGEGEYDYWGQGTQVTVSS | low polyreactivity |
| QVQLVESGGGLVQAGGSLRLSCAASGSIFYIYAMGWYRQAPGKERELVATISHRGGSTYYADSVKGRFTISRDNAKNTVYLQMNSLKPEDTAVYYCAARSYYSWGRPLPSFNYWGQGTQVTVSS | high polyreactivity |
| QVQLVESGGGLVQAGGSLRLSCAASGSIFYKNAMGWYRQAPGKERELVAAITYSGGSTYYADSVKGRFTISRDNAKNTVYLQMNSLKTEDTAVYYCAADIGVYGERREEEYDYWGQGTQVTVSS | low polyreactivity |
| QVQLVESGGGLVQAGGSLRLSCAASGSIFYKNAMGWYRQAPGKERELVAVISWSGGSTSYADSVKGRFTISRDNAKNTVYLQMNSLKPEDTAVYYCAKEYFTDYLYEYDYWGQGTQVTVSS | low polyreactivity |
| QVQLVESGGGLVQAGGSLRLSCAASGSIFYKYTMGWYRPAPGKERELVAAISRSGGRTYYADSVKGRFTISRDNAKNTVYLQMNSLKPEDTAVYYCARDLKIVEYDYWGQGTQVTVSS | low polyreactivity |
| QVQLVESGGGLVQAGGSLRLSCAASGSIFYLNAMGWYRQAPGKERELVATISNGGSTNYADSVKGRFTISRDNAKNTVYLQMNSLKPEDTAVYYCATGVIREGDYWGQGTKVTVSS | low polyreactivity |
| QVQLVESGGGLVQAGGSLRLSCAASGSIFYLYAMGWYRQAPGKERELVAAITSIGGSTYADSVKGRFTISRDNAKNTVYLQMNSLKPEDTAVYYCNADGLYEKWGPWTVPYYYWGQGTQVTVSS | low polyreactivity |
| QVQLVESGGGLVQAGGSLRLSCAASGSIFYLYAMGWYRQAPGKERELVATISTGSGRTYYADSVKGRFTISRDNAKNTVYLQMNSLKPEDTAVYYCAASRTLRKHRYEYWGQGTEVTVSS | high polyreactivity |
| QVQLVESGGGLVQAGGSLRLSCAASGSIFYPYAMGWYRQAPGKERELVAAISSGGRTYYADSVKGRFTISRDNAKNTVYLQMNSLKPEDTAVYYCAARPKAYGRPPGYYWGQGTQVTVSS | high polyreactivity |
| QVQLVESGGGLVQAGGSLRLSCAASGSIFYPYAMGWYRQATGKERELVAVITDTGSTYYADSVKGRFTISRDNAKNTVYLQMNSLKPEDTAVYYCYRTSYVKTPTKRYNYWGQGTQVTVSS | low polyreactivity |
| QVQLVESGGGLVQAGGSLRLSCAASGSIFYQNAMGWSRQAPGKEWELVAAISWSGGSTYYADSVKGRFTISRDNAKNTDFLQMNSLKPEDTAVYYCNKYVRFRGGAYVTGYDYWGQGTQVTVSS | high polyreactivity |
| QVQLVESGGGLVQAGGSLRLSCAASGSIFYQYAMGWNRQAPGKERELVAVINRSGSSTYYADSVKGRFTISRDNAKNTVYLQMNSLKPEDNAVYYCAAASKYSEYNYWGQGTEVTVSS | high polyreactivity |
| QVQLVESGGGLVQAGGSLRLSCAASGSIFYQYAMGWYRQAPGKEREFVAAITRRGTSTYYADSVKGRFTISRDIAKNTVYLQMNSLKPEDTAVYYCAARYGPNMDYWGQGTQVTVSS | high polyreactivity |
| QVQLVESGGGLVQAGGSLRLSCAASGSIFYRNALGWYRQAPGKERELVAAISSDGSTNYADSVKGRFTISRDNAKNTVYLQLNSLKPEDTAVYYCAAPWTQILDYWGQGTQVTVSS | low polyreactivity |
| QVQLVESGGGLVQAGGSLRLSCAASGSIFYRNAMGCYIQAPGKERELVAAITSSGVSTYYADSVKGRFTISRDNAKNTVYLQMNSLKPEDTAVYYCAARSVYTGRPYYYWGQGTQVTVSS | high polyreactivity |
